± gives the standard deviation of the averaged measurements.
Test: total protein half-life in vivo (active degradation + dilution); higher = more stable protein
[1] = E. coli NCM3722 delta-clpP delta-lon delta-hslV, growth: N-lim chemostat, doubling time 6 h
[2] = E. coli NCM3722 delta-clpP, growth: N-lim chemostat, doubling time 6 h
[3] = E. coli NCM3722 delta-hslV, growth: N-lim chemostat, doubling time 6 h
[4] = E. coli NCM3722 delta-lon, growth: N-lim chemostat, doubling time 6 h
[5] = E. coli NCM3722 delta-smpB, growth: N-lim chemostat, doubling time 6 h
[6] = wild type E. coli NCM3722, growth: C-lim chemostat, doubling time 12 h
[7] = wild type E. coli NCM3722, growth: N-lim chemostat, doubling time 6 h
[8] = wild type E. coli NCM3722, growth: N-lim chemostat, doubling time 12 h
[9] = wild type E. coli NCM3722, growth: P-lim chemostat, doubling time 6 h
[10] = wild type E. coli NCM3722, growth: P-lim chemostat, doubling time 12 h
[11] = wild type E. coli NCM3722, growth: C-lim chemostat, doubling time 6 h
[12] = wild type E. coli NCM3722, growth: C-lim chemostat, doubling time 3 h

Sequence	total protein half-life in vivo [1]	total protein half-life in vivo [2]	total protein half-life in vivo [3]	total protein half-life in vivo [4]	total protein half-life in vivo [5]	total protein half-life in vivo [6]	total protein half-life in vivo [7]	total protein half-life in vivo [8]	total protein half-life in vivo [9]	total protein half-life in vivo [10]	total protein half-life in vivo [11]	total protein half-life in vivo [12]
MTYAVEFDNVSRLYGDVRAVDGVSIAIKDGEFFSMLGPSGSGKTTCLRLIAGFEQLSGGAISIFGKPASNLPPWERDVNTVFQDYALFPHMSILDNVAYGLMVKGVNKKQRHAMAQEALEKVALGFVHQRKPSQLSGGQRQRVAIARALVNEPRVLLLDEPLGALDLKLREQMQLELKKLQQSLGITFIFVTHDQGEALSMSDRVAVFNNGRIEQVDSPRDLYMRPRTPFVAGFVGTSNVFDGLMAEKLCGMTGSFALRPEHIRLNTPGELQANGTIQAVQYQGAATRFELKLNGGEKLLVSQANMTGEELPATLTPGQQVMVSWSRDVMVPLVEER	6.01 ± 0.38 h	6.427 ± 0.038 h	5.58 ± 0.28 h	4.65 ± 1.3 h	5.64 ± 0.085 h	10.2 ± 0.023 h	4.78 ± 0.27 h	10.4 ± 0.55 h	4.68 h	10.8 ± 1.8 h	–	–
MPRGLELLIAQTILQGFDAQYGRFLEVTSGAQQRFEQADWHAVQQAMKNRIHLYDHHVGLVVEQLRCITNGQSTDAAFLLRVKEHYTRLLPDYPRFEIAESFFNSVYCRLFDHRSLTPERLFIFSSQPERRFRTIPRPLAKDFHPDHGWESLLMRVISDLPLRLRWQNKSRDIHYIIRHLTETLGTDNLAESHLQVANELFYRNKAAWLVGKLITPSGTLPFLLPIHQTDDGELFIDTCLTTTAEASIVFGFARSYFMVYAPLPAALVEWLREILPGKTTAELYMAIGCQKHAKTESYREYLVYLQGCNEQFIEAPGIRGMVMLVFTLPGFDRVFKVIKDRFAPQKEMSAAHVRACYQLVKEHDRVGRMADTQEFENFVLEKRHISPALMELLLQEAAEKITDLGEQIVIRHLYIERRMVPLNIWLEQVEGQQLRDAIEEYGNAIRQLAAANIFPGDMLFKNFGVTRHGRVVFYDYDEICYMTEVNFRDIPPPRYPEDELASEPWYSVSPGDVFPEEFRHWLCADPRIGPLFEEMHADLFRADYWRALQNRIREGHVEDVYAYRRRQRFSVRYGEMLF	4.97 h	3.61 h	–	–	–	10.7 ± 0.2 h	–	–	–	11.9 h	6.35 ± 0.23 h	–
MAELTALHTLTAQMKREGIRRLLVLSGEEGWCFEHTLKLRDALPGDWLWISPRPDAENHCSPSALQTLLGREFRHAVFDARHGFDAAAFAALSGTLKAGSWLVLLLPVWEEWENQPDADSLRWSDCPDPIATPHFVQHLKRVLTADNEAILWRQNQPFSLAHFTPRTDWYPATGAPQPEQQQLLKQLMTMPPGVAAVTAARGRGKSALAGQLISRIAGRAIVTAPAKASTDVLAQFAGEKFRFIAPDALLASDEQADWLVVDEAAAIPAPLLHQLVSRFPRTLLTTTVQGYEGTGRGFLLKFCARFPHLHRFELQQPIRWAQGCPLEKMVSEALVFDDENFTHTPQGNIVISAFEQTLWQSDPETPLKVYQLLSGAHYRTSPLDLRRMMDAPGQHFLQAAGENEIAGALWLVDEGGLSQQLSQAVWAGFRRPRGNLVAQSLAAHGNNPLAATLRGRRVSRIAVHPARQREGTGRQLIAGALQYTQDLDYLSVSFGYTGELWRFWQRCGFVLVRMGNHREASSGCYTAMALLPMSDAGKQLAEREHYRLRRDAQALAQWNGETLPVDPLNDAVLSDDDWLELAGFAFAHRPLLTSLGCLLRLLQTSELALPALRGRLQKNASDAQLCTTLKLSGRKMLLVRQREEAAQALFALNDVRTERLRDRITQWQLFH	5 ± 1.1 h	4.59 ± 0.41 h	4.37 ± 0.39 h	4.56 ± 0.19 h	4.39 ± 0.29 h	–	4.07 ± 1.4 h	7.56 ± 0.58 h	6.65 ± 0.2 h	12.2 ± 1.5 h	6.05 ± 0.38 h	3.04 ± 0.3 h
MLDKLDAALRFQQEALNLRAQRQEVLAANIANADTPGYQARDIDFASELKKVMQRGRDATSVVALTMTSTQHIPAQALTPPTAELQYRIPDQPSLDGNTVDMDRERTQFADNSLQYQMSLSALSGQIKGMMNVLQSGN [P0ABW9]	–	–	–	–	–	–	–	–	–	–	–	1.32 h
MINVLIIDDDAMVAELNRRYVAQIPGFQCCGTASTLEKAKEIIFNSDTPIDLILLDIYMQKENGLDLLPVLHNARCKSDVIVISSAADAATIKDSLHYGVVDYLIKPFQASRFEEALTGWRQKKMALEKHQYYDQAELDQLIHGSSSNEQDPRRLPKGLTPQTLRTLCQWIDAHQDYEFSTDELANEVNISRVSCRKYLIWLVNCHILFTSIHYGVTGRPVYRYRIQAEHYSLLKQYCQ [P0AD01]	5.41 ± 0.33 h	2.86 h	4.1 ± 0.41 h	3.42 ± 0.16 h	3.1 ± 0.27 h	5.01 ± 0.094 h	3.51 ± 0.13 h	5.76 ± 0.53 h	1.58 h	3.84 ± 0.61 h	3.27 ± 0.38 h	1.69 ± 0.17 h
MQAATVVINRRALRHNLQRLRELAPASKMVAVVKANAYGHGLLETARTLPDADAFGVARLEEALRLRAGGITKPVLLLEGFFDARDLPTISAQHFHTAVHNEEQLAALEEASLDEPVTVWMKLDTGMHRLGVRPEQAEAFYHRLTQCKNVRQPVNIVSHFARADEPKCGATEKQLAIFNTFCEGKPGQRSIAASGGILLWPQSHFDWVRPGIILYGVSPLEDRSTGADFGCQPVMSLTSSLIAVREHKAGEPVGYGGTWVSERDTRLGVVAMGYGDGYPRAAPSGTPVLVNGREVPIVGRVAMDMICVDLGPQAQDKAGDPVILWGEGLPVERIAEMTKVSAYELITRLTSRVAMKYVD [P0A6B4]	5.14 ± 0.16 h	4.27 ± 0.085 h	5.12 ± 0.41 h	4.99 ± 0.29 h	4.58 ± 1.3 h	11 ± 1.9 h	4.39 ± 0.14 h	7.99 ± 0.34 h	5.87 ± 0.2 h	11.53 ± 0.057 h	5.75 ± 0.44 h	3.1 ± 0.046 h
MNSKKLCCICVLFSLLAGCASESSIDEKKKKAQVTQSNINKNTPQQLTDKDLFGNETTLAVSEEDIQAALDGDEFRVPLNSPVILVQSGNRAPETIMQEEMRKYYTVSTFSGIPDRQKPLTCNKNKDKNENEDVASAENMNWMQALRFVAAKGHQKAIIVYQDMLQTGKYDSALKSTVWSDYKNDKLTDAISLRYLVRFTLVDVATGEWATWSPVNYEYKVLPPLPDKNEASTTDMTEQQIMQLKQKTYKAMVKDLVNRYQ	–	–	–	–	2.44 h	–	–	–	–	–	–	–
MESLSEGTTAGYQQIHDGIIHLVDSARTETVRSVNALMTATYQEIGRRIVEFEQGGEARAAYGAQLIKRLSKDLCLRYKRGFSAKNLRQMRLFYLFFQHVEIHQTMSGELTPLGIPQTPSAEFPSAKIWQTLSAKSFPLPRSTYVRLLSVKNADARSFYEKETLRCGWSVRQLERQIATQFYERTLLSHDKSAMLQQHAPAETHILPQQAIRDPFVLEFLELKDEYSESDFEEALINHLMDFMLELGDDFAFVGRQRRLRIDDNWFRVDLLFFHRRLRCLLIVDLKVGKFSYSDAGQMNMYLNYAKEHWTLPDENPPIGLVLCAEKGAGEAHYALAGLPNTVLASEYKMQLPDEKRLADELVRTQAVLEEGYRRR	–	–	5.34 h	–	–	–	–	–	–	–	5.89 h	–
MTEIVADKTVEVVKNAIETADGALDLYNKYLDQVIPWQTFDETIKELSRFKQEYSQAASVLVGDIKTLLMDSQDKYFEATQTVYEWCGVATQLLAAYILLFDEYNEKKASAQKDILIKVLDDGITKLNEAQKSLLVSSQSFNNASGKLLALDSQLTNDFSEKSSYFQSQVDKIRKEAYAGAAAGVVAGPFGLIISYSIAAGVVEGKLIPELKNKLKSVQNFFTTLSNTVKQANKDIDAAKLKLTTEIAAIGEIKTETETTRFYVDYDDLMLSLLKEAAKKMINTCNEYQKRHGKKTLFEVPEV	4.51 ± 0.82 h	4.37 ± 0.14 h	3.54 ± 0.068 h	3.77 ± 0.13 h	2.84 ± 0.25 h	6.71 ± 1.1 h	3.2 ± 0.039 h	5.29 ± 0.62 h	4.11 ± 0.63 h	7.49 ± 0.36 h	4.71 ± 0.94 h	3.15 ± 0.65 h
MHELSLCQSAVEIIQRQAEQHDVKRVTAVWLEIGALSCVEESAVRFSFEIVCHGTVAQGCDLHIVYKPAQAWCWDCSQVVEIHQHDAQCPLCHGERLRVDTGDSLIVKSIEVE [P0A703]	4.94 ± 1.4 h	3.51 h	–	3.49 ± 0.32 h	3.57 h	9.8 h	3.97 ± 0.6 h	5.27 ± 1.4 h	3.77 h	8.0989 ± 0.006 h	–	–
MAEKKQWHETLHDQFGQYFAVDNVLYHEKTDHQDLIIFENAAFGRVMALDGVVQTTERDEFIYHEMMTHVPLLAHGHAKHVLIIGGGDGAMLREVTRHKNVESITMVEIDAGVVSFCRQYLPNHNAGSYDDPRFKLVIDDGVNFVNQTSQTFDVIISDCTDPIGPGESLFTSAFYEGCKRCLNPGGIFVAQNGVCFLQQEEAIDSHRKLSHYFSDVGFYQAAIPTYYGGIMTFAWATDNDALRHLSTEIIQARFLASGLKCRYYNPAIHTAAFALPQYLQDALASQPS	–	4.62 ± 0.2 h	4.51 ± 0.12 h	4.89 ± 0.27 h	4.49 ± 0.41 h	9.58 ± 0.14 h	4.21 ± 0.35 h	7.27 ± 0.36 h	5.86 ± 0.46 h	13 ± 2.3 h	7.06 ± 0.82 h	–
MPHHIVIVEDEPVTQARLQSYFTQEGYTVSVTASGAGLREIMQNQSVDLILLDINLPDENGLMLTRALRERSTVGIILVTGRSDRIDRIVGLEMGADDYVTKPLELRELVVRVKNLLWRIDLARQAQPHTQDNCYRFAGYCLNVSRHTLERDGEPIKLTRAEYEMLVAFVTNPGEILSRERLLRMLSARRVENPDLRTVDVLIRRLRHKLSADLLVTQHGEGYFLAADVC	5.18 ± 0.63 h	4.57 ± 0.43 h	–	4.9 h	3.92 ± 0.089 h	9.618 ± 0.075 h	3.89 ± 0.33 h	5.93 h	4.28 h	9.93 ± 0.41 h	5.13 ± 0.33 h	2.78 ± 0.039 h
MAQPAAIIRIKNLRLRTFIGIKEEEINNRQDIVINVTIHYPADKARTSEDINDALNYRTVTKNIIQHVENNRFSLLEKLTQDVLDIAREHHWVTYAEVEIDKLHALRYADSVSMTLSWQR [P0AC19]	4.1 ± 0.57 h	2.73 ± 0.7 h	2.79 ± 0.23 h	3.5 ± 0.081 h	2.93 ± 0.14 h	10 ± 4 h	2.58 ± 0.23 h	3.989 ± 0.015 h	5.16 ± 0.45 h	11.5 ± 0.42 h	4.77 ± 0.2 h	–
MIEFDNLTYLHGKPQGTGLLKANPEDFVVVEDLGFEPDGEGEHILVRILKNGCNTRFVADALAKFLKIHAREVSFAGQKDKHAVTEQWLCARVPGKEMPDLSAFQLEGCQVLEYARHKRKLRLGALKGNAFTLVLREVSNRDDVEQRLIDICVKGVPNYFGAQRFGIGGSNLQGAQRWAQTNTPVRDRNKRSFWLSAARSALFNQIVAERLKKADVNQVVDGDALQLAGRGSWFVATTEELAELQRRVNDKELMITAALPGSGEWGTQREALAFEQAAVAAETELQALLVREKVEAARRAMLLYPQQLSWNWWDDVTVEIRFWLPAGSFATSVVRELINTTGDYAHIAE	5.52 ± 0.077 h	5.85 ± 0.93 h	5.53 ± 0.64 h	6.03 ± 0.79 h	5.8 ± 0.21 h	12.8 ± 1.1 h	4.93 ± 0.21 h	9.75 ± 0.26 h	5.99 ± 0.14 h	12.6 ± 0.88 h	5.78 ± 0.067 h	3.11 ± 0.11 h
MRVLVTGGSGYIGSHTCVQLLQNGHDVIILDNLCNSKRSVLPVIERLGGKHPTFVEGDIRNEALMTEILHDHAIDTVIHFAGLKAVGESVQKPLEYYDNNVNGTLRLISAMRAANVKNFIFSSSATVYGDQPKIPYVESFPTGTPQSPYGKSKLMVEQILTDLQKAQPDWSIALLRYFNPVGAHPSGDMGEDPQGIPNNLMPYIAQVAVGRRDSLAIFGNDYPTEDGTGVRDYIHVMDLADGHVVAMEKLANKPGVHIYNLGAGVGNSVLDVVNAFSKACGKPVNYHFAPRREGDLPAYWADASKADRELNWRVTRTLDEMAQDTWHWQSRHPQGYPD	6.39 ± 1.9 h	4.762 ± 0.027 h	4.54 ± 0.37 h	5 ± 0.24 h	5.61 ± 1.2 h	11.6 ± 0.67 h	4.53 ± 0.95 h	13.7 ± 1.8 h	5.91 ± 0.51 h	11.7 ± 0.53 h	5.62 ± 0.26 h	3.11 ± 0.27 h

Source: the supplement of paper PMC11246515
